Data from the supplement of paper PMC7125110.
± gives the standard error. Variants at the floor of the assay were thinned out.

B1: glmS ribozyme (parent)
chain: AUAAAAGCGCCAGAACUACAGAAAUGUAGUUGACGAGGAGGAGGUUUAUCGAAUUUUCGGCGGAUGCCUCCAAA

What was measured:
Conditions in all cases: with glucosamine-6-phosphate
glucosamine-6-phosphate [1] = variants of: B1; experiment: self-cleavage kobs at 40 uM GlcN6P; higher = faster cleavage; RNA array
Outline: (§1)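 In situ transcription by E. coli RNA polymerase produced barcoded ribozyme variants on sequenced MiSeq chips, and a hybridised Cy3 probe tracked them at 37 °C. Glucosamine-6-phosphate was flowed in at 40 μM to 10 mM in HEPES/KCl/Mg(OAc)2 buffer. kcat and KM were taken from weighted Michaelis–Menten fits of kobs values from exponential decay fits.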

glucosamine-6-phosphate [2] = variants of: B1; experiment: self-cleavage kobs at 160 uM GlcN6P; higher = faster cleavage; RNA array
Outline: as §1

glucosamine-6-phosphate [3] = variants of: B1; experiment: self-cleavage kobs at 640 uM GlcN6P; higher = faster cleavage; RNA array
Outline: as §1

glucosamine-6-phosphate [4] = variants of: B1; experiment: self-cleavage kobs at 10000 uM GlcN6P; higher = faster cleavage; RNA array
Outline: as §1

glucosamine-6-phosphate [5] = variants of: B1; experiment: self-cleavage kobs at 2500 uM GlcN6P; higher = faster cleavage; RNA array
Outline: as §1

Variant	self-cleavage kobs at 40 uM GlcN6P (glucosamine-6-phosphate [1]) [s⁻¹]	self-cleavage kobs at 160 uM GlcN6P (glucosamine-6-phosphate [2]) [s⁻¹]	self-cleavage kobs at 640 uM GlcN6P (glucosamine-6-phosphate [3]) [s⁻¹]	self-cleavage kobs at 10000 uM GlcN6P (glucosamine-6-phosphate [4]) [s⁻¹]	self-cleavage kobs at 2500 uM GlcN6P (glucosamine-6-phosphate [5]) [s⁻¹]
G7U G60U	< 1e-05	< 1e-05	< 1e-05	< 1e-05	
U55A C67U	0.000401 ± 8.2e-05	0.000667 ± 0.00022	0.00589 ± 0.0022	0.0154 ± 0.0038	
A39U U56A	0.000199 ± 3.1e-05	0.000238 ± 8.2e-05		0.00963 ± 0.00089	0.00215 ± 0.00066
G40A G43A	< 1e-05		< 1e-05	< 1e-05	< 1e-05
C8G C58G G60A	< 1e-05			< 1e-05	
G13U G29A G44U U55G	< 1e-05			< 1e-05	
C10U C50G C70G	5.33e-05 ± 1.6e-05				
A6C A12U G29A C68G	< 1e-05		< 1e-05		< 1e-05
G29U U47A U57G	< 1e-05				
G40C C68U	< 1e-05			1.72e-05 ± 7.9e-06	
G41U G66C C68U	< 1e-05	< 1e-05	< 1e-05		< 1e-05
A6U A33C	< 1e-05	< 1e-05	< 1e-05		< 1e-05
A6U G7A G44U A52U U55C A64U	< 1e-05		< 1e-05	< 1e-05	
A6U C10A G41C U46A C70A	< 1e-05			< 1e-05	< 1e-05
A15G C34A	< 1e-05	< 1e-05	< 1e-05		
U31A A33G A39U G43A A48U	< 1e-05			< 1e-05	
G44A U47A C71A	< 1e-05		< 1e-05	< 1e-05	< 1e-05
G13A G37U A39G G41C A42C G43A	< 1e-05			< 1e-05	
G7C G40A	< 1e-05	< 1e-05	< 1e-05	< 1e-05	< 1e-05
G35U U54C U55A G59C	< 1e-05			< 1e-05	
G7C A15G	< 1e-05			< 1e-05	
C8A G66U	< 1e-05	< 1e-05			< 1e-05
